Sequences and labels used below:
B1: ActRIIB(23-131)-hFc (Fc fusion, not shown: a dimerising Fc or GST)
chain: EAETRECIYYNANWELERTNQSGLERCEGEQDKRLHCYASWRNSSGTIELVKKGCWLDDFNCYDRQECVATEENPQVYFCCCEGNFCNERFTHLPEAGGPEVTYEPPPTGGG
B2: ActRIIB(20-134)-hFc (Fc fusion)
chain: GRGEAETRECIYYNANWELERTNQSGLERCEGEQDKRLHCYASWRNSSGTIELVKKGCWLDDFNCYDRQECVATEENPQVYFCCCEGNFCNERFTHLPEAGGPEVTYEPPPTAPTGGGTHTCPPCPAPELLGGPSVFLFPPKPKDTLMISRTPEVTCVVVDVSHEDPEVKFNWYVDGVEVHNAKTKPREEQYNSTYRVVSVLTVLHQDWLNGKEYKCKVSNKALPVPIEKTISKAKGQPREPQVYTLPPSREEMTKNQVSLTCLVKGFYPSDIAVEWESNGQPENNYKTTPPVLDSDGSFFLYSKLTVDKSRWQQGNVFSCSVMHEALHNHYTQKSLSLSPGK
B3: ActRIIB(22-131)-hFc (Fc fusion, not shown: a dimerising Fc or GST)
chain: GEAETRECIYYNANWELERTNQSGLERCEGEQDKRLHCYASWRNSSGTIELVKKGCWLDDFNCYDRQECVATEENPQVYFCCCEGNFCNERFTHLPEAGGPEVTYEPPPTGGG
B4: ActRIIB(21-131)-hFc (Fc fusion, not shown: a dimerising Fc or GST)
chain: RGEAETRECIYYNANWELERTNQSGLERCEGEQDKRLHCYASWRNSSGTIELVKKGCWLDDFNCYDRQECVATEENPQVYFCCCEGNFCNERFTHLPEAGGPEVTYEPPPTGGG
B5: ActRIIB(20-128)-hFc (Fc fusion, not shown: a dimerising Fc or GST)
chain: GRGEAETRECIYYNANWELERTNQSGLERCEGEQDKRLHCYASWRNSSGTIELVKKGCWLDDFNCYDRQECVATEENPQVYFCCCEGNFCNERFTHLPEAGGPEVTYEPGGG
B6: ActRIIB(20-132)-hFc (Fc fusion, not shown: a dimerising Fc or GST)
chain: GRGEAETRECIYYNANWELERTNQSGLERCEGEQDKRLHCYASWRNSSGTIELVKKGCWLDDFNCYDRQECVATEENPQVYFCCCEGNFCNERFTHLPEAGGPEVTYEPPPTAGGG
B7: ActRIIB(24-131)-hFc (Fc fusion, not shown: a dimerising Fc or GST)
chain: AETRECIYYNANWELERTNQSGLERCEGEQDKRLHCYASWRNSSGTIELVKKGCWLDDFNCYDRQECVATEENPQVYFCCCEGNFCNERFTHLPEAGGPEVTYEPPPTGGG
B8: ActRIIB(20-131)-hFc (Fc fusion, not shown: a dimerising Fc or GST)
chain: GRGEAETRECIYYNANWELERTNQSGLERCEGEQDKRLHCYASWRNSSGTIELVKKGCWLDDFNCYDRQECVATEENPQVYFCCCEGNFCNERFTHLPEAGGPEVTYEPPPTGGG
B9: ActRIIB(L79 25-131)-hFc (Fc fusion)
chain: ETRECIYYNANWELERTNQSGLERCEGEQDKRLHCYASWRNSSGTIELVKKGCWLDDFNCYDRQECVATEENPQVYFCCCEGNFCNERFTHLPEAGGPEVTYEPPPTGGG
notes: also called ActRIIB(25-131)-hFc; not shown: human Fc domain (hFc)
B10: GDF11 (ligand, UniProt O95390 299-407, looked up)
chain: NLGLDCDEHSSESRCCRYPLTVDFEAFGWDWIIAPKRYKANYCSGQCEYMFMQKYPHTHLVQQANPRGSAGPCCTPTKMSPINMLYFNDKQQIIYGKIPGMVVDRCGCS
notes: also called Growth and Differentiation Factor-11; BMP11
B11: ActRIIB(A24N 20-134)-hFc (Fc fusion)
chain: GRGENETRECIYYNANWELERTNQSGLERCEGEQDKRLHCYASWRNSSGTIELVKKGCWLDDFNCYDRQECVATEENPQVYFCCCEGNFCNERFTHLPEAGGPEVTYEPPPTAPTGGG
notes: also called the A24N variant; not shown: human Fc domain (hFc)
B12: ActRIIB(R64K 20-134)-hFc (Fc fusion)
chain: B11 chain with N5A, R45K
notes: not shown: human Fc domain (hFc)
B13: ActRIIB(P129S, P130R 20-134)-hFc (Fc fusion)
chain: B11 chain with N5A, P110S, P111R
notes: kept as two molecules; not shown: human Fc domain (hFc)
B14: ActRIIB(K74A 20-134)-hFc (Fc fusion)
chain: B11 chain with N5A, K55A
notes: as for B12
B15: ActRIIB(R64K 20-129)-hFc (Fc fusion)
chain: GRGEAETRECIYYNANWELERTNQSGLERCEGEQDKRLHCYASWKNSSGTIELVKKGCWLDDFNCYDRQECVATEENPQVYFCCCEGNFCNERFTHLPEAGGPEVTYEPPGGG
notes: as for B12

Where a chain is given by its changes, count along the chain named. Numbers in names are those of the source.

One test concerns the target B10. Description: cell-based or functional assay.
Settings: not given
B1 gave an IC50 (ng/mL), A-204 reporter gene assay, conditioned media of 60 ng/mL.

Consider B2, for which the “IC50 (ng/mL), A-204 reporter gene assay, conditioned media” value stood at 45 ng/mL.

Molecule B3 returned an IC50 (ng/mL), A-204 reporter gene assay, conditioned media of 71 ng/mL.

The molecule B4 showed an IC50 (ng/mL), A-204 reporter gene assay, conditioned media of 121 ng/mL.

On to B5, for which the IC50 (ng/mL), A-204 reporter gene assay, conditioned media came to 130 ng/mL.

Consider B6, for which the IC50 (ng/mL), A-204 reporter gene assay, conditioned media worked out at 87 ng/mL.

In turn, B7 displayed an IC50 (ng/mL), A-204 reporter gene assay, conditioned media of 69 ng/mL.

Regarding B8, the IC50 (ng/mL), A-204 reporter gene assay, conditioned media turned out to be 183 ng/mL.

The same test, now with this note: record 2.
As for B8, the IC50 (ng/mL), A-204 reporter gene assay, conditioned media was determined as 120 ng/mL.

The target of another test is T1, Activin A (UniProt P08476 311-426).
T1 sequence (looked up): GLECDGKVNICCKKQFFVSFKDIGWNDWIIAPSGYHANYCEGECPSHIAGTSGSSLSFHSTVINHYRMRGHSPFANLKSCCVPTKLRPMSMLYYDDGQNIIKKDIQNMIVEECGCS
Description: cell-based or functional assay.
Settings: not given
The molecule B1 came in with an IC50 (ng/mL), A-204 reporter gene assay, conditioned media of 43 ng/mL.

As to B2, the “IC50 (ng/mL), A-204 reporter gene assay, conditioned media” value is 22 ng/mL.

In turn, B3 gave an IC50 (ng/mL), A-204 reporter gene assay, conditioned media of 100 ng/mL.

As for B4, the IC50 (ng/mL), A-204 reporter gene assay, conditioned media was 325 ng/mL.

B5 showed an IC50 (ng/mL), A-204 reporter gene assay, conditioned media of 158 ng/mL.

B6 registered an IC50 (ng/mL), A-204 reporter gene assay, conditioned media of 32 ng/mL.

The molecule B7 gave an IC50 (ng/mL), A-204 reporter gene assay, conditioned media of 105 ng/mL.

For B8, the IC50 (ng/mL), A-204 reporter gene assay, conditioned media is 201 ng/mL.

Still in this test, the particulars now being: record 2.
Molecule B8 returned an IC50 (ng/mL), A-204 reporter gene assay, conditioned media of 44 ng/mL.

The target in a further test is B10. The test is described as follows: Biacore, steady-state affinity fit.
Settings: not given
On the procedure: (§1) The affinity of GDF Traps and other ActRIIB-hFc proteins for several ligands was evaluated in vitro with a Biacore™ instrument. Kd values were obtained by steady-state affinity fit due to the very rapid association and dissociation of the complex, which prevented accurate determination of kₒₙ and koff.
(In SPR one partner is held on a chip, and binding of the other changes the refractive index at the surface.)
Broadly, the Kd is the concentration at which binding is half-saturated. Consider B2, for which the Kd came out at 0.036 nM.

The next test deals with T1, Activin A. Description: Biacore, steady-state affinity fit.
Settings: not given
On the procedure: as §1
Take B9: the Kd worked out at 0.018 nM.

As for B2, binding was put at a Kd of 0.016 nM. This Kd and that of the molecule before are within 1.5-fold of each other.

The target in the next test is T2, Activin B (UniProt P09529 293-407).
T2 sequence (looked up): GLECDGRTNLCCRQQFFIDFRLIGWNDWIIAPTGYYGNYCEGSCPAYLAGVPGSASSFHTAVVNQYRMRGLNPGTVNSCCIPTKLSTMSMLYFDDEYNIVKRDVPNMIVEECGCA
Description: Biacore, steady-state affinity fit.
Settings: not given
On the procedure:
as §1
For B9, the Kd came out at 0.012 nM.

B2 displayed a Kd of 0.012 nM.

A further test concerns the target B9. Description: Biacore, steady-state affinity fit.
Settings: not given
On the procedure:
as §1
The molecule B10 came in with a Kd of 0.031 nM.

A further test deals with B10. The test is described as follows: Biacore; ActRIIB-Fc captured by anti-hFc antibody, ligand injected.
Settings: not given
On the procedure: (§2) Binding of certain ActRIIB-Fc proteins and GDF Traps to ligands was tested in a BiaCore™ assay.
(§3) The ActRIIB-Fc variants or wild-type protein were captured onto the system using an anti-hFc antibody. Ligands were injected and flowed over the captured receptor proteins.
Usually koff stands for the rate constant with which the complex falls apart. B2 gave a Kd of 0.0842 nM and a koff of 0.000113 s⁻¹.

On to B11, for which the Kd amounted to 0.0519 nM and the koff turned out to be 6.35e-05 s⁻¹.

As to B12, binding was characterised by a dissociation constant (Kd) of 0.0356 nM and the koff was 2.41e-05 s⁻¹.

The next test addresses T3, GDF8 (UniProt O14793 267-375).
T3 construct: also called myostatin; Growth and Differentiation Factor-8
T3 sequence (looked up): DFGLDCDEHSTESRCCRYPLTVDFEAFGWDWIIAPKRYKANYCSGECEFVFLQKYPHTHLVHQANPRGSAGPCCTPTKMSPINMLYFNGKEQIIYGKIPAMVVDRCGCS
Described as above.
Settings: not given
On the procedure: as §2, §3
As for B2, binding was put at a Kd of 0.0935 nM and the koff stood at 3.45e-05 s⁻¹.

Take B12: the Kd turned out to be 0.21 nM and the koff came to 4.71e-05 s⁻¹.

B13: the Kd came to 1.67 nM and the koff was determined as 0.00018 s⁻¹.

As to B14, the Kd worked out at 0.0718 nM and the koff stood at 2.03e-05 s⁻¹.

In turn, B15 showed a Kd of 2.15 nM and an off-rate constant (koff) of 0.000209 s⁻¹.

In another test the target is T1, Activin A. The description is as above.
Settings: not given
On the procedure: as §2, §3
Usually kon stands for the second-order rate constant of association. A high value points to fast association. B2 came in with a Kd of 0.0268 nM, a koff of 0.000159 s⁻¹ and a kon of 5.94e+06 M⁻¹ s⁻¹.

As to B11, the Kd was 0.104 nM, the koff amounted to 0.000346 s⁻¹ and the kon amounted to 3.34e+06 M⁻¹ s⁻¹.

Regarding B12, binding was characterised by a dissociation constant (Kd) of 0.0476 nM, the koff came out at 0.000325 s⁻¹ and the kon is 6.82e+06 M⁻¹ s⁻¹.

Molecule B13 gave a Kd of 0.0831 nM, an off-rate constant (koff) of 0.000417 s⁻¹ and a kon of 5.02e+06 M⁻¹ s⁻¹.

In turn, B15 displayed a Kd of 0.0841 nM, a koff of 0.000628 s⁻¹ and a kon of 7.46e+06 M⁻¹ s⁻¹.

Values taken from patent publication US20100068215A1 (published 2010).
